Assays:
[1] = biological target: T1, 金黄色葡萄球菌肠毒素A (Staphylococcus aureus, UniProt P0A0L2 25-257); test: phage ELISA on coated SEA
T1 sequence: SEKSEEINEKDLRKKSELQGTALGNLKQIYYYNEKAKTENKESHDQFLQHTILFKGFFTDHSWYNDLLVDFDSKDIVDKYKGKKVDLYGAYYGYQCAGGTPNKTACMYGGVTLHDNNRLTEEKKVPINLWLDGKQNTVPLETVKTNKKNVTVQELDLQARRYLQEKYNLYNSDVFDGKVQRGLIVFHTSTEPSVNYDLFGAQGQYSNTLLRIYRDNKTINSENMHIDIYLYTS

[2] = biological target: T2, 金黄色葡萄球菌肠毒素B (Staphylococcus aureus, UniProt P01552 28-266); test: direct ELISA, antigen coated, HRP-conjugated nanobody
T2 sequence: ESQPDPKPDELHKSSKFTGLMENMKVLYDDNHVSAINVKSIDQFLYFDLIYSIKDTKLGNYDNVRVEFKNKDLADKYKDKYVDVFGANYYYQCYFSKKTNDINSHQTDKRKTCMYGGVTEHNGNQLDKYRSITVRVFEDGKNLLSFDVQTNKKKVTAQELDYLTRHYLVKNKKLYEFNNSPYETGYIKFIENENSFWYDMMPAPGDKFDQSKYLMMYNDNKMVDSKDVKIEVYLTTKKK

B1: 金黄色葡萄球菌肠毒素A纳米抗体A13 (VHH)
VHH: ESGGGSVQAGGSLRLSCAASGDAYMCKCMGWFRQGPGKEREKVAAIYITDGSTYYADSVKGRFTLSQDNAKNTVYLQMNSLKPEDTAMYYCAASTFYGCETGLHGYNYWGQGTQVTVS
binding result [1]: binds | binding result [2]: no binding (tested: 500ng/mL (coating))
